Reference: patent US12617856B2, “Protease-cleavable substrates and methods of use thereof” (CytomX Therapeutics, Inc., priority 2022, dated 2026)
Starred links: 1 amine or outer side, 2 acyl side, 3 side chain; linkers in the order of their positions; H or OH if unused. No end group written: not given here. *: point of attachment. K(DNP) = O=C([C@H](CCCCNc1ccc([N+](=O)[O-])cc1[N+](=O)[O-])N[*:1])[*:2]; Mca = COc1ccc2c(CC(=O)*)cc(=O)oc2c1

Experiments:
Type in all cases: biochemical
[1] = target: T1, membrane type serine protease 1 (MT-SP1) (Homo sapiens, UniProt Q9Y5Y6); experiment: Peptide probe cleavage assay (internally quenched MCA/DNP probes) with MT-SP1; settings: 20 μM internally quenched peptide probe, 20 nM protease, 37° C.
T1 sequence (Q9Y5Y6 1-855): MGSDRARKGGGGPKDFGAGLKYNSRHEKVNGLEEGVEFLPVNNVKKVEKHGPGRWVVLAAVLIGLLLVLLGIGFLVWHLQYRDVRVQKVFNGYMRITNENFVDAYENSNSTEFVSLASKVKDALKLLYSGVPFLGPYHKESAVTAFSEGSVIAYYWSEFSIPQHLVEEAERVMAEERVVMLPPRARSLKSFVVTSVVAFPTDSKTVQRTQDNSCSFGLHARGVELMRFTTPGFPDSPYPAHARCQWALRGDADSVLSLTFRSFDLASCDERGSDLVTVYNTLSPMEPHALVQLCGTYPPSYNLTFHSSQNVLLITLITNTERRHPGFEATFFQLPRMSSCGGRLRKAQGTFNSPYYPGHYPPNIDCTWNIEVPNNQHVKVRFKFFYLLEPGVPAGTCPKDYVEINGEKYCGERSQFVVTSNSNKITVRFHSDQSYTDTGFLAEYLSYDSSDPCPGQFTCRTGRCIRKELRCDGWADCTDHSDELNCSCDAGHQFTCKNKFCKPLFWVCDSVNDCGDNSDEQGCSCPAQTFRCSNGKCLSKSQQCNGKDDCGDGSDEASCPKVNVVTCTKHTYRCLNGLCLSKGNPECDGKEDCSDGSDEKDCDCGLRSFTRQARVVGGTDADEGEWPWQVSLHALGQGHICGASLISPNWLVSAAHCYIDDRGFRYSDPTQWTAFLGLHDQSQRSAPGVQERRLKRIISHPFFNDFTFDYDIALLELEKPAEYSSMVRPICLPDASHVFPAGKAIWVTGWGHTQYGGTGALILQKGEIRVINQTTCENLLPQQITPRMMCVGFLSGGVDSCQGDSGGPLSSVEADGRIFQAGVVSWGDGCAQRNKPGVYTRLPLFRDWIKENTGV

[2] = target: urokinase-type plasminogen activator (uPA) (Homo sapiens, UniProt P00749); experiment: Peptide probe cleavage assay (internally quenched MCA/DNP probes) with uPA; settings: 20 μM internally quenched peptide probe, 20 nM protease, 37° C.; — = below limit of quantification
MMP9 = MMP9 (Homo sapiens, UniProt P14780); experiment: Peptide probe cleavage assay (internally quenched MCA/DNP probes) with MMP9; settings: 20 μM internally quenched peptide probe, 20 nM protease, 37° C.
Sequence of MMP9 (P14780 94-707): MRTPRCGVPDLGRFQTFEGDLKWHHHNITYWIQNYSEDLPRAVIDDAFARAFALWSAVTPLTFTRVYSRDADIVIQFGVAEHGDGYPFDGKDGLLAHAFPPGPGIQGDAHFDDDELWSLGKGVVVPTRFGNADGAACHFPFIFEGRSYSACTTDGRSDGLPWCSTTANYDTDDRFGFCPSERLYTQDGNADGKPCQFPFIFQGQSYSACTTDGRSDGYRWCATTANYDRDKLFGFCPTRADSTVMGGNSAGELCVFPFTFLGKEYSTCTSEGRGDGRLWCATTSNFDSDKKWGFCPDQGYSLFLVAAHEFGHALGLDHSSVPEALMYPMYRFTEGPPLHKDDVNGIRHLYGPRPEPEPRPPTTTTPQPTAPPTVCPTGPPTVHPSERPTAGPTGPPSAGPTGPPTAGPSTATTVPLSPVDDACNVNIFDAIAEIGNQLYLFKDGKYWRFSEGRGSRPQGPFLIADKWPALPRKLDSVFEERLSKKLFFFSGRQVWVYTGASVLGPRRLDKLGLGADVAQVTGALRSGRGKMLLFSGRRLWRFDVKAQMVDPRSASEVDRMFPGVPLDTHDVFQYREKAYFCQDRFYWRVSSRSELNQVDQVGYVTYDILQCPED

MMP14 = MMP14 (Homo sapiens, UniProt P50281); experiment: Peptide probe cleavage assay (internally quenched MCA/DNP probes) with MMP14; settings: 20 μM internally quenched peptide probe, 20 nM protease, 37° C.; — = below limit of quantification
MMP2 = target: T2, MMP2 (Homo sapiens, UniProt P08253); experiment: Peptide probe cleavage assay (internally quenched MCA/DNP probes) with MMP2; settings: 20 μM internally quenched peptide probe, 20 nM protease, 37° C.
T2 sequence (P08253 110-660): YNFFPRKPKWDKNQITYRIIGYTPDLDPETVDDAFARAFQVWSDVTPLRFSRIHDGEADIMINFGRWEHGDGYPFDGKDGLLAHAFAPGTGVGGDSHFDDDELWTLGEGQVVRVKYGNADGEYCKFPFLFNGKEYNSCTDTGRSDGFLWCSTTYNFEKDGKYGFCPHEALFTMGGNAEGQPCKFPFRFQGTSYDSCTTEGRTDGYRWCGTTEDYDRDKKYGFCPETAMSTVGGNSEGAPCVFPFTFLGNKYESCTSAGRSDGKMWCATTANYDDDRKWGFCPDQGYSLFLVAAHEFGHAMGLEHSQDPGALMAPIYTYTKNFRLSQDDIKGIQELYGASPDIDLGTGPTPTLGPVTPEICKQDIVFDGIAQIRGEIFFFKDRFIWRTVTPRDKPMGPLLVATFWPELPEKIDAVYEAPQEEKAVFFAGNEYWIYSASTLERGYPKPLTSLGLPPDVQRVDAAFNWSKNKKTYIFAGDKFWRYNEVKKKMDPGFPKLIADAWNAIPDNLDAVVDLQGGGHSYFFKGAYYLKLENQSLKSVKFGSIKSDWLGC

| Substance | Probe Cleavage (pM/s) MT-SP1 [1] [pM/s] | Probe Cleavage (pM/s) uPA [2] [pM/s] | Probe Cleavage (pM/s) MMP9 (MMP9) [pM/s] | Probe Cleavage (pM/s) MMP14 (MMP14) [pM/s] | Probe Cleavage (pM/s) MMP2 (MMP2) [pM/s] |
| --- | --- | --- | --- | --- | --- |
| (MCA)-Ser-Pro-Trp-Gly-Leu-Ser-Gly-Gly-Gly-Ser-Lys (DNP)-D-Arg (Mca-SPWGLSGGGS-{K(DNP)-dR}; SMILES COc1ccc2c(CC(=O)N[C@@H](CO)C(=O)N3CCC[C@H]3C(=O)N[C@@H](Cc3c[nH]c4ccccc34)C(=O)NCC(=O)N[C@@H](CC(C)C)C(=O)N[C@@H](CO)C(=O)NCC(=O)NCC(=O)NCC(=O)N[C@@H](CO)C(=O)N[C@@H](CCCCNc3ccc([N+](=O)[O-])cc3[N+](=O)[O-])C(=O)N[C@H](CCCNC(=N)N)C(=O)O)cc(=O)oc2c1) [CM PWGLSG] | 5.10 | 12.9 | – | – | – |
| CM AWGLSGRS: internally quenched MCA/DNP probe SEQ ID NO: 699 with one residue replaced by Ala, CM AWGLSGRS (SEQ ID NO: 686) (not fully specified (N-terminus, C-terminus); also: MCA/DNP internal quench labels, places not given here) | – | – | – | 224 | 816 |
| CM PWGLRS: internally quenched MCA/DNP peptide probe of design SEQ ID NO: 698, CM PWGLRS (SEQ ID NO: 48) (also: MCA/DNP internal quench labels, places not given here) | 1230 | – | 3830 | 4380 | 3800 |
| CM PWGLSGAS: internally quenched MCA/DNP probe SEQ ID NO: 699 with one residue replaced by Ala, CM PWGLSGAS (SEQ ID NO: 692) (not fully specified (N-terminus, C-terminus); also: MCA/DNP internal quench labels, places not given here) | 13.0 | 1.80 | – | – | – |
| (MCA)-Gly-Ser-Trp-Gly-Leu-Ser-Gly-Arg-Ser-Gly-Lys (DNP)-D-Arg (Mca-GSWGLSGRSG-{K(DNP)-dR}; SMILES COc1ccc2c(CC(=O)NCC(=O)N[C@@H](CO)C(=O)N[C@@H](Cc3c[nH]c4ccccc34)C(=O)NCC(=O)N[C@@H](CC(C)C)C(=O)N[C@@H](CO)C(=O)NCC(=O)N[C@@H](CCCNC(=N)N)C(=O)N[C@@H](CO)C(=O)NCC(=O)N[C@@H](CCCCNc3ccc([N+](=O)[O-])cc3[N+](=O)[O-])C(=O)N[C@H](CCCNC(=N)N)C(=O)O)cc(=O)oc2c1) [CM WGLSGRS] | – | – | 581 | – | 66.4 |
| CM RSPWGL: internally quenched MCA/DNP peptide probe of design SEQ ID NO: 698, CM RSPWGL (SEQ ID NO: 90) (also: MCA/DNP internal quench labels, places not given here) | 2390 | 3210 | 25500 | 9580 | 11700 |

Continued, values first:

| Probe Cleavage (pM/s) MT-SP1 [1] [pM/s] | Probe Cleavage (pM/s) uPA [2] [pM/s] | Probe Cleavage (pM/s) MMP9 (MMP9) [pM/s] | Probe Cleavage (pM/s) MMP14 (MMP14) [pM/s] | Probe Cleavage (pM/s) MMP2 (MMP2) [pM/s] | Substance |
| --- | --- | --- | --- | --- | --- |
| – | – | 456 | 29.7 | 202 | CM PWGASGRS: internally quenched MCA/DNP probe SEQ ID NO: 699 with one residue replaced by Ala, CM PWGASGRS (SEQ ID NO: 689) (not fully specified (N-terminus, C-terminus); also: MCA/DNP internal quench labels, places not given here) |
| – | 126 | – | – | – | CM PWGLAGRS: internally quenched MCA/DNP probe SEQ ID NO: 699 with one residue replaced by Ala, CM PWGLAGRS (SEQ ID NO: 690) (not fully specified (N-terminus, C-terminus); also: MCA/DNP internal quench labels, places not given here) |
| – | 380 | – | – | – | CM PWGLSGRA: internally quenched MCA/DNP probe SEQ ID NO: 699 with one residue replaced by Ala, CM PWGLSGRA (SEQ ID NO: 693) (not fully specified (N-terminus, C-terminus); also: MCA/DNP internal quench labels, places not given here) |
| – | 48.3 | – | – | – | (MCA)-Ser-Pro-Trp-Gly-Leu-Ser-Gly-Arg-Gly-Ser-Lys (DNP)-D-Arg (Mca-SPWGLSGRGS-{K(DNP)-dR}; SMILES COc1ccc2c(CC(=O)N[C@@H](CO)C(=O)N3CCC[C@H]3C(=O)N[C@@H](Cc3c[nH]c4ccccc34)C(=O)NCC(=O)N[C@@H](CC(C)C)C(=O)N[C@@H](CO)C(=O)NCC(=O)N[C@@H](CCCNC(=N)N)C(=O)NCC(=O)N[C@@H](CO)C(=O)N[C@@H](CCCCNc3ccc([N+](=O)[O-])cc3[N+](=O)[O-])C(=O)N[C@H](CCCNC(=N)N)C(=O)O)cc(=O)oc2c1) [CM PWGLSGR] |
| – | – | – | 190 | – | CM LSGRSPAGL: internally quenched MCA/DNP probe of design SEQ ID NO: 703, X1 Arg, X2 Ala, CM LSGRSPAGL (SEQ ID NO: 694) (also: MCA/DNP internal quench labels, places not given here) |
